Laboratory results from paper PMC11673460.

Target: cobalamin binding domain of CarH from Thermus thermophilus (Thermus thermophilus)

Q: How did the aggregation ratio (area of bacteria in aggregates/total area occupied by all bacteria) of E. coli MG1655 displaying CarH (CarH‐eCPX), with AdoB12Cy5, in the dark turn out when “cobalamin binding domain of CarH from Thermus thermophilus (domain or fragment)” was run?
A: Its aggregation ratio (area of bacteria in aggregates/total area occupied by all bacteria) of E. coli MG1655 displaying CarH (CarH‐eCPX), with AdoB12Cy5, in the dark is 50%.

Q: And the aggregation ratio of CarH‐displaying E. coli with AdoB12Cy5 under green or red light (aggregates not separated by far‐red light)?
A: The aggregation ratio of CarH‐displaying E. coli with AdoB12Cy5 under green or red light (aggregates not separated by far‐red light) was less than 20%.

Q: And the aggregation ratio of CarH‐displaying E. coli with AdoB12Cy7.5 under green, red or far‐red light?
A: Its aggregation ratio of CarH‐displaying E. coli with AdoB12Cy7.5 under green, red or far‐red light is less than 20%.

Q: And the aggregation ratio of CarH‐displaying E. coli with AdoB12 under green light (aggregates stable under red and far‐red light)?
A: Its aggregation ratio of CarH‐displaying E. coli with AdoB12 under green light (aggregates stable under red and far‐red light) is less than 20%.

Q: And the aggregation ratio of E. coli MG1655 displaying CarH (CarH‐eCPX), with AdoB12, in the dark?
A: The aggregation ratio of E. coli MG1655 displaying CarH (CarH‐eCPX), with AdoB12, in the dark was 50%.

Q: What about the aggregation ratio of E. coli MG1655 displaying CarH (CarH‐eCPX), with AdoB12Cy7.5, in the dark of the same substance?
A: Its aggregation ratio of E. coli MG1655 displaying CarH (CarH‐eCPX), with AdoB12Cy7.5, in the dark is 50%.
